Results taken from US20250002593A1 (INMAGENE PTE, published 2025).

Tests used:
[1] = biological target: T1, Recombinant hIL-36R protein (Acrobio, Cat #IL2-H52H6) (human, UniProt Q9HB29 20-335); experiment: BLI (Gator)
T1 construct: Bought soluble protein; also called recombinant human IL-36R protein
T1 sequence: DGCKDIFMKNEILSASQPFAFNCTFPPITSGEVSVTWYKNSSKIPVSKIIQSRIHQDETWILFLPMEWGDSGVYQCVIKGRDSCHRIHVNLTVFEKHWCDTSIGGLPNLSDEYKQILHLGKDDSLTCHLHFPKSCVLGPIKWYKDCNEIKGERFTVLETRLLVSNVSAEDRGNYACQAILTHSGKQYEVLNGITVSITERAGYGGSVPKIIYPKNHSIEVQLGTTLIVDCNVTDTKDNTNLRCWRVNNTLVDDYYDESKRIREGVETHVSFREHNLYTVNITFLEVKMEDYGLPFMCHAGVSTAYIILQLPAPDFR

[2] = biological target: T2, Recombinant hIL1R1 protein (human, UniProt P14778 18-332, limits assumed); experiment: ELISA on coated hIL1R1
T2 sequence (looked up): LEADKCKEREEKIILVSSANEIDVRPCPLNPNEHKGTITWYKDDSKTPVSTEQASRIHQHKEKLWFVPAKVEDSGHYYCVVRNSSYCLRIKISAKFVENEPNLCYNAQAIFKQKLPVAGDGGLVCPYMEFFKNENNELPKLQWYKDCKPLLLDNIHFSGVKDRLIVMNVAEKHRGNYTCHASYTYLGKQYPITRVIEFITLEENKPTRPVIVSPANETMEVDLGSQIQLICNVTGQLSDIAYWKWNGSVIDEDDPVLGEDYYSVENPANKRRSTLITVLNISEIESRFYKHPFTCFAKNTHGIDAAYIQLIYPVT

[3] = biological target: T3, membrane hIL-36R (human, UniProt Q9HB29 20-575); experiment: cell-based or functional assay
T3 sequence: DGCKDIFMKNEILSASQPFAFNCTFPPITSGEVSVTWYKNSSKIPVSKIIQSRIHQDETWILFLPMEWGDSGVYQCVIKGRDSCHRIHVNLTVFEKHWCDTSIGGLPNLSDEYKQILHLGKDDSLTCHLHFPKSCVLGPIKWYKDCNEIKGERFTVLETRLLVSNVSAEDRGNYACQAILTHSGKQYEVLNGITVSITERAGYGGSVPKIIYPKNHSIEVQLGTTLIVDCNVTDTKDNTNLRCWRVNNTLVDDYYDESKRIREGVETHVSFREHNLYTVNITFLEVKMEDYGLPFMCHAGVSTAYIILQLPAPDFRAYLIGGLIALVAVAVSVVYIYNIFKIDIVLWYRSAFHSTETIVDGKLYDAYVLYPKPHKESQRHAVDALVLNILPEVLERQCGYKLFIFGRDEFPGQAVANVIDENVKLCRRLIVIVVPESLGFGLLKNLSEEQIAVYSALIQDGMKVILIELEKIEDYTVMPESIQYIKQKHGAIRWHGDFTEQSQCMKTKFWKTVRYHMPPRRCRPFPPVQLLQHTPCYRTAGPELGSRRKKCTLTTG

[4] = biological target: T3, membrane hIL-36R; experiment: cell-based or functional assay; remark: listed apart in the source
[5] = biological target: T4, recombinant hIL-36R-his (human, UniProt Q9HB29 20-337); experiment: ELISA on coated recombinant hIL-36R-his, HRP anti-hIgG
T4 construct: Residues 1-337 (extracellular domain) are stated for the IL-36R-his used as immunogen; The range includes the signal peptide; no cleavage site is stated; also called recombinant hIL36R protein; recombinant human IL-36R-his protein; not shown: His tag
T4 sequence: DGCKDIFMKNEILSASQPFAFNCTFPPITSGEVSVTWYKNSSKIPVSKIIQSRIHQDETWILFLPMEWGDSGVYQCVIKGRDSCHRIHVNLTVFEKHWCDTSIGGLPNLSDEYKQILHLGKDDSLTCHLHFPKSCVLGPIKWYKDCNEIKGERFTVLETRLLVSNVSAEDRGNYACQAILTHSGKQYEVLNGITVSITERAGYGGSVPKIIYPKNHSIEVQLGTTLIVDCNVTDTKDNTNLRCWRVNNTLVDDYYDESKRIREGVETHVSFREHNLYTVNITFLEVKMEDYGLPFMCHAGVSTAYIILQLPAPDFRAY

[6] = biological target: T5, membrane mouse IL-36R (mouse, UniProt Q9ERS7 22-574); experiment: flow cytometry on HEK293 cells transfected with mouse IL-36R
T5 construct: whole, on cells; also called mouse IL-36R on HEK293 cells transfected with pcDNA3.1-musIL36R
T5 sequence (looked up): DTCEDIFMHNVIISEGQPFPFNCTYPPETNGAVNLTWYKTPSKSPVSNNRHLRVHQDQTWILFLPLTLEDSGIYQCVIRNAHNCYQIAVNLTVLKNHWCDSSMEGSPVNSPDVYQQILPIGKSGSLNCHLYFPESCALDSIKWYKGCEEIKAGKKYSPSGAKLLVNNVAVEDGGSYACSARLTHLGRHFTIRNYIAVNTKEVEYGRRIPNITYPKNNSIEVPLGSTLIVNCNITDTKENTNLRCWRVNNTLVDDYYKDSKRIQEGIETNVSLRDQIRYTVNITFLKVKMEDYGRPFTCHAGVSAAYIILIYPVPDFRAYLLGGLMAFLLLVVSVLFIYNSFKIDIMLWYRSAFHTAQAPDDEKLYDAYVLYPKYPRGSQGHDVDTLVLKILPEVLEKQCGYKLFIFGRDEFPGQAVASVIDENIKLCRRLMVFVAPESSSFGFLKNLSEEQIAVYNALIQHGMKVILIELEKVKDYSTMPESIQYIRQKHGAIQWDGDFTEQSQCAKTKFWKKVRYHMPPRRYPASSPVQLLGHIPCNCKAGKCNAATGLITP

[7] = biological target: T1, Recombinant hIL-36R protein (Acrobio, …); experiment: SPR (Biacore T200, 25 C), antibody captured by Fc, hIL-36R analyte
[8] = biological target: T3, membrane hIL-36R; experiment: flow cytometry on HEK293 cells transfected with hIL-36R, FITC anti-hIgG
[9] = biological target: T6, recombinant hFcRn-his/B2M heterodimer protein (Acrobio, Cat #FCM-H82W4) (human, UniProt P55899 24-297; P61769 21-119); experiment: BLI (Gator) at pH 6.0, hFcRn-his/B2M on anti-his sensor, antibody analyte
T6 construct: Bought heterodimer

Kd [1]: < 0.1 nM | kon [1]: 47100 M⁻¹ s⁻¹ | binding result [2]: no binding | IC50, IL-36α induced IL-6 release in HEK cells [3]: 0.11 µg/mL | IC50, IL-36α induced IL-8 release in A431 cells [3]: 0.195 µg/mL | IC50, IL-36α induced IL-8 release in HDF cells [3]: 0.00696 µg/mL | IC50, IL-36α induced IL-8 release in HEK cells [3]: 0.129 µg/mL | IC50, IL-36α induced TNF-a release in HEK cells [3]: 0.0535 µg/mL | IC50, IL-36β induced IL-6 release in HEK cells [3]: 0.0188 µg/mL | IC50, IL-36β induced IL-8 release in A431 cells [3]: 0.111 µg/mL | IC50, IL-36β induced IL-8 release in HEK cells [3]: 0.0481 µg/mL | IC50, IL-36β induced TNF-a release in HEK cells [3]: 0.0235 µg/mL | IC50, IL-36γ induced IL-6 release in HEK cells [3]: 0.0446 µg/mL | IC50, IL-36γ induced IL-8 release in A431 cells [3]: 0.00877 µg/mL | IC50, IL-36γ induced IL-8 release in HEK cells [3]: 0.0326 µg/mL | IC50, IL-36γ induced TNF-a release in HEK cells [3]: 0.00526 µg/mL | IC50, IL-36R reporter assay: inhibition of ligand induced luminescence in Jurkat-IL36R-IL1Racp-NFkB-luc cells [4]: 0.0237 µg/mL | EC50 [5]: 0.00947 µg/mL | binding result [6]: no binding | Kd [7]: 1.52 nM | koff [7]: 4.48e-05 s⁻¹ | kon [7]: 29500 M⁻¹ s⁻¹ | EC50 [8]: 0.146 µg/mL | Kd [9]: 168 nM | koff [9]: 0.0507 s⁻¹ | kon [9]: 301000 M⁻¹ s⁻¹
B1: 5F7-2a8 (antibody, human IgG4 S228P, kappa)
heavy: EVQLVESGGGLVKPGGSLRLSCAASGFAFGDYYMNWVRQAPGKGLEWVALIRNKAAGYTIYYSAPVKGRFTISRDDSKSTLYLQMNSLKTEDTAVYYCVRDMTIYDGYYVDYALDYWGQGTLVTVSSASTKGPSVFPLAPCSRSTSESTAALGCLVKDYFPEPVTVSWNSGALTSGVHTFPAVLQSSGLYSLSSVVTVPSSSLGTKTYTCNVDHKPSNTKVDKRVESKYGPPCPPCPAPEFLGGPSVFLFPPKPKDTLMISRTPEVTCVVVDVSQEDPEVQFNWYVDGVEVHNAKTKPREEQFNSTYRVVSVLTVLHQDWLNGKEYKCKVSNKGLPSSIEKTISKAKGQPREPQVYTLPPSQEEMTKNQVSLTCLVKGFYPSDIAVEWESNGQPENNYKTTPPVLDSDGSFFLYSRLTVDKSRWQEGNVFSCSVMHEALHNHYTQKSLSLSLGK
light: DIVMTQSPSSVSASVGDRVTITCRASRNINIWLSWYQQKPGKAPKLFIYKASNLHTGVPSRFSGSGSGTDFTLTISSLQPEDFATYYCLQSQSYPLTFGQGTKLEIKRTVAAPSVFIFPPSDEQLKSGTASVVCLLNNFYPREAKVQWKVDNALQSGNSQESVTEQDSKDSTYSLSSTLTLSKADYEKHKVYACEVTHQGLSSPVTKSFNRGEC
notes: also called 5F7-2a8-WT; 5F7-WT
